Results reported in article doi:10.1101/2021.03.23.436624 (bioRxiv, 2021).

Assays:
cryo-EM structure = target: the molecule itself; assay: cryo-EM structure
[1] = target: N. gonorrhoeae LptD (1-801)-3C-His10 and LptE (1-159)-AVI complex, biotinylated (Neisseria gonorrhoeae) (UniProt Q5F651); assay: grating coupled interferometry

B1: Neisseria gonorrhoeae LptD (NgLptD) (natural protein, UniProt Q5F651 24-801, looked up)
chain: ADTVAAEEADGRVAEGGAQGASESAQASDLTLGSTCLFCSNESGSPERTEAAVQGSGEASVPEDYTRIVADRMEGQSKVKVRAEGSVIIERDGAVLNTDWADYDQSGDTVTVGDRFALQQDGTLIRGETLTYNLDQQTGEAHNVRMETEQGGRRLQSVSRTAEMLGEGRYKLTETQFNTCSAGDAGWYVKAASVEADRGKGIGVAKHAAFVFGGVPLFYTPWADFPLDGNRKSGLLVPSVSAGSDGVSLSVPYYFNLAPNFDATFAPGIIGERGATFDGQIRYLRPDYSGQTDLTWLPHDKKSGRNNRYQAKWQHRHDISDTLQAGVDFNQVSDSGYYRDFYGGEEIAGNVNLNRRVWLDYGGRAAGGSLNAGLSVQKYQTLANQSGYKDEPYAIMPRLSADWHKNAGRAQIGVSAQFTRFSHDGRQDGSRLVVYPGIKWDFSNSWGYVRPKLGLHATYYSLDSFGGKASRSVGRVLPVVNIDGGTTFERNTRLFGGGVVQTIEPRLFYNYIPAKSQNDLPNFDSSESSFGYGQLFRENLYYGNDRINAANSLSTAVQSRILDGATGEERFRAGIGQKFYFKDDAVMLDGSVGKNPRSRSDWVAFASGGIGGRFTLDSSIHYNQNDKRAEHYAVGAGYRPAPGKVLNARYKYGRNEKIYLQADGSYFYDKLSQLDLSAQWPLTRNLSAVVRYNYGFEAKKPIEMLAGAEYKSSCGCWGAGVYAQRYVTGENTYKNAVFFSLQLKDLSSVGRNPAGRMDVAVPGYIPAHSLSAGRNKRP
cryo-EM structure
  binding result: binds

B2: Sybody 21 (Sb21) (VHH)
VHH: QVQLVESGGGLVQAGGSLRLSCAASGFPVKYEHMYWYRQAPGKEREWVAAINSAGNETHYADSVKGRFTISRDNAKNTVYLQMNSLKPEDTAVYYCNVKDIGWWAAYDYWGQGTQVTV
[1]
  Kd: 10 nM
